Consider two molecules from article doi:10.1101/388470 (bioRxiv, 2018).

For data set [1], the target named is T1, Cdc45-5FLAG (S. cerevisiae), Q08032.
T1 chain: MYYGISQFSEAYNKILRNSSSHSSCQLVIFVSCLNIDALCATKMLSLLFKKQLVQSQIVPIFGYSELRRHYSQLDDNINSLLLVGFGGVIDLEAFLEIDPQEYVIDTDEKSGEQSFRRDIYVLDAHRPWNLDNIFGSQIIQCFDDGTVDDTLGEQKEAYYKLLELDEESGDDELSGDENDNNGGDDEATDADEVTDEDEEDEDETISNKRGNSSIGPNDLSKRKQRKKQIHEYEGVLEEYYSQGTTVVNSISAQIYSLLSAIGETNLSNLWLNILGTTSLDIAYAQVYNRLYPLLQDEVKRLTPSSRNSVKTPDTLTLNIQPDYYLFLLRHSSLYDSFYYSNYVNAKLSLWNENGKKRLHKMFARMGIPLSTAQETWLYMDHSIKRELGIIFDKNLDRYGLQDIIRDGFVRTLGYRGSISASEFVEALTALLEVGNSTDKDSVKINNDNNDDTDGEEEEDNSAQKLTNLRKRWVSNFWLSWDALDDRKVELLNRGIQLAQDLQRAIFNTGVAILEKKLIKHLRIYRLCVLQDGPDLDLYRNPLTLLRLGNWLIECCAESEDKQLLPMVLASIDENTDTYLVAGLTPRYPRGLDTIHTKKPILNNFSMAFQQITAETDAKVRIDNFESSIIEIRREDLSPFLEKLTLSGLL
The data set can be described thus: co-sedimentation. As to conditions: remark: other sources report otherwise.

Data set [2] deals with the molecule itself. Briefly: co-sedimentation.

B1: Cdc45-5FLAG, Q08032 1-650 (natural protein)
chain: MYYGISQFSEAYNKILRNSSSHSSCQLVIFVSCLNIDALCATKMLSLLFKKQLVQSQIVPIFGYSELRRHYSQLDDNINSLLLVGFGGVIDLEAFLEIDPQEYVIDTDEKSGEQSFRRDIYVLDAHRPWNLDNIFGSQIIQCFDDGTVDDTLGEQKEAYYKLLELDEESGDDELSGDENDNNGGDDEATDADEVTDEDEEDEDETISNKRGNSSIGPNDLSKRKQRKKQIHEYEGVLEEYYSQGTTVVNSISAQIYSLLSAIGETNLSNLWLNILGTTSLDIAYAQVYNRLYPLLQDEVKRLTPSSRNSVKTPDTLTLNIQPDYYLFLLRHSSLYDSFYYSNYVNAKLSLWNENGKKRLHKMFARMGIPLSTAQETWLYMDHSIKRELGIIFDKNLDRYGLQDIIRDGFVRTLGYRGSISASEFVEALTALLEVGNSTDKDSVKINNDNNDDTDGEEEEDNSAQKLTNLRKRWVSNFWLSWDALDDRKVELLNRGIQLAQDLQRAIFNTGVAILEKKLIKHLRIYRLCVLQDGPDLDLYRNPLTLLRLGNWLIECCAESEDKQLLPMVLASIDENTDTYLVAGLTPRYPRGLDTIHTKKPILNNFSMAFQQITAETDAKVRIDNFESSIIEIRREDLSPFLEKLTLSGLL
For orientation: stoichiometry N means the number of molecules, sites or subunits per partner or assembly. Molecule B1 yielded a stoichiometry N in data set [1] of 2.

B2: Psf2-5FLAG (natural protein)
chain: MSLPAHLQQTFSPEEIQFIVENEPIKIFPRITTRQKIRGDDRGTGNHTRWQLITTDDKALNNMVAMRSTEVVLWIALLLKQQSKCSIVAPQWLTTKELDRKIQYEKTHPDRFSELPWNWLVLARILFNKAKDDFHDPIHELRGKIQDLREIRQIKVLKGLKYLNESHLQLDNLSLLEINELRPFITEIMDKLREIHTASLTAGTENDEEEFNI
Take B2: the “stoichiometry N” value in data set [2] stood at 2.
